Data taken from publication PMC11218997, “Human cytomegalovirus deploys molecular mimicry to recruit VPS4A to sites of virus assembly” (PLOS Pathogens, 2024).
Numbering of substitutions follows the chain as printed. Names may count otherwise.

B1: HSV-1 pUL51: HA-tagged pUL71 homologue from HSV-1 (pUL51) (protein)
chain: MASLLGAICGWGARPEEQYEMIRAAVPPSEAEPRLQEALAVVNALLPAPITLDDALGSLDDTRRLVKARALARTYHACMVNLERLARHHPGFEAPTIDGAVAAHQDKMRRLADTCMATILQMYMSVGAADKSADVLVSQAIRSMAESDVVMEDVAIAERALGLSAFGVAGGTRSGGIGVTEAPSLGHPHTPPPEVTLAPAARNGDALPDPKPESCPRVSVPRPTASPTAPRPGPSRAAPCVLGQ
modifications: left off: HA, C-terminal, kept
B2: VPS4A-FLAG-V13D: FLAG-tagged VPS4A with V13D substitution that prevents binding to MIM2 (protein, UniProt Q9UN37 1-437, looked up, variant V13D)
Vacuolar protein …: MTTSTLQKAIDLDTKATEEDKAKNYEEALRLYQHAVEYFLHAIKYEAHSDKAKESIRAKCVQYLDRAEKLKDYLRSKEKHGKKPVKENQSEGKGSDSDSEGDNPEKKKLQEQLMGAVVMEKPNIRWNDVAGLEGAKEALKEAVILPIKFPHLFTGKRTPWRGILLFGPPGTGKSYLAKAVATEANNSTFFSVSSSDLMSKWLGESEKLVKNLFELARQHKPSIIFIDEVDSLCGSRNENESEAARRIKTEFLVQMQGVGNNNDGTLVLGATNIPWVLDSAIRRRFEKRIYIPLPEEAARAQMFRLHLGSTPHNLTDANIHELARKTEGYSGADISIIVRDSLMQPVRKVQSATHFKKVCGPSRTNPSMMIDDLLTPCSPGDPGAMEMTWMDVPGDKLLEPVVCMSDMLRSLATTRPTVNADDLLKVKKFSEDFGQES
modifications: FLAG tag
B3: VPS4A(L64D)-FLAG: FLAG-tagged VPS4A with L64D substitution that prevents binding to MIM1 (protein, UniProt Q9UN37 1-437, looked up, variant L64D)
Vacuolar protein …: B2 Vacuolar protein … with D13V, L64D
modifications: FLAG tag
B4: YC-VPS4A-FLAG: VPS4A-FLAG fused to the C-terminal half of Citrine (protein)
chain: B2 Vacuolar protein … with D13V
modifications: left off: Citrine residues 156-239 with A206K (YC), N-terminal, kept | FLAG, C-terminal, kept
B5: HHV6 pUL44: HA-tagged pUL71 homologue from HHV6 (pU44) (protein)
chain: MGNCFRRLSLFGQPTQAKYEMLCSSDDLETEELTYFLDMTYKDFGVYQNDIISHQKDTETMKTLLGLLPMYKKTKLRHTVMERCLSNCPNHVKDALCVELMKAEKILQTMDVVFMKTLIGEFSMCTDNLNQLLNKFATDQSTLSDVEKINSLIEIDGENSKRLLVELDPILHEETGLYQALPNVVTEAPSEKVKSIRVESEGESV
modifications: left off: HA, C-terminal, kept

What was measured:
VPS4A-FLAG [1] = experiment: Anti-FLAG co-immunoprecipitation from co-transfected HEK293FT cells; type: cell-based, human; settings: 48 h post-transfection, immunoblot
From the text: (§1) All eukaryotic expression plasmids for pUL71 and pUL71 homologues were generated in the backbone of pEF1/Myc-His C expression vector (Invitrogen) by cloning using restriction enzymes. The open reading frame (ORF) of full-length UL71 was amplified from the HCMV wild-type BAC TB40-BAC4 using the primers ex_71_for and ex_71_rev and was the basis for all further UL71 mutants. C-terminally truncated variants UL71_1–326, UL71_1–320 and UL71_1–314 were generated using primers ex_71_for and respective reverse primers UL71_1–326_rev, UL71_1–320_rev and UL71_1–314_rev. Point mutants PPAA (P315A+P318A), V317D, P315A and P318A of the vMIM2 of pUL71 were generated by fusion PCR. For the example of the PPAA mutant, a first fragment UL71_1-326-PPAA was amplified with the primers ex_71_for and UL71 _1–326_P315A/P318A_rev. A second fragment UL71_320–361 was amplified by using primers UL71_1–361_P315A/P318A-for and ex_71_rev. The final PCR product UL71-PPAA was amplified by using fragment UL71_1-326-PPAA as template and ex_71_for and fragment UL71_320–361 as primers. UL71-V317D, UL71-P315A and UL71-P318A were generated similarly manner using the primers UL71 _1–326_V317D_rev, UL71 _1–326_P315A_rev and UL71 _1–326_P318A_rev, respectively, to generate the first fragment. […]

VPS4A-FLAG [2] = experiment: Co-transfection localisation, immunofluorescence, COS-7 cells; type: cell-based, human; settings: COS-7, 20–24 h post-transfection
From the text: as §1

pUL71 = experiment: Co-transfection localisation of VPS4A-FLAG variants with pUL71, COS-7 cells; type: cell-based, HCMV; settings: COS-7, co-transfection
From the text: Human VPS4A-FLAG, C-terminally fused with the FLAG-tag epitope, was expressed from expression vector pBJ5-Vps4Flag (gift from A. Calistri, University of Padova, Italy). Cloning of this vector is described in detail in [100]. The VPS4-FLAGΔMIT variant, comprising VPS4A residues 119–437, was generated from pBJ5-Vps4Flag using primers bex_VPS4aa119-437 and Flag+Stop_rev. Point mutant VPS4A-FLAG-V13D was amplified using primers Vps4A-V13D_for and Flag+Stop_rev. Variant VPS4-FLAG-L64D was generated by fusion PCR where primers Vps4_for and Vps4A-L64D_rev generated a fragment that was used as forward primer in a second PCR together with primer Flag+Stop_rev to generate full-length VPS4A. All VPS4A variants were cloned using restriction enzymes into backbone vector pEF1/Myc-His C.
Intracellular localisation studies after transient expression were performed in COS-7 cells that were seeded with 3.3×10^4 cells per well on glass coverslips in a 24-well plate. The next day, cells were transfected with the respective DNAs by using Lipofectamine LTX (Invitrogen) according to the manufacturer’s protocol. Between 20 to 24 hours post-transfection, cells were fixed with 4% (v/v) paraformaldehyde (PFA) in PBS for 10 min at 4°C and prepared for localisation analysis by using indirect immunofluorescence staining.

[3] = test system: pUL71 (YN fusion, TB71-YN); experiment: Bimolecular fluorescence complementation in TB71-YN infected MRC-5 cells; type: cell-based, HCMV; settings: MRC-5 infected with TB71-YN, MOI 1, 5 dpi
From the text: HCMV strains AD169 [92], Toledo [93], Merlin [94], VR1814 [95] and TB40/E [96] and two clinical isolates (isolates 19 and 20, kindly provided by C. Sinzger, Ulm University Hospital, Germany) were used in this study. This panel was chosen as it covers the most commonly used cell culture passaged strains and two isolates that grow highly cell associated. In addition, bacmid derived viruses were used. Reconstituted virus from bacterial artificial chromosome (BAC) clone TB40-BAC4 of the endotheliotropic HCMV strain TB40/E (accession number EF999921.1.) served as wild type virus (WT) in this study. Generation and propagation of recombinant viruses, TBstop71 and TBrev71 have been described elsewhere. […] The recombinant virus TB71-YN used for bimolecular fluorescence complementation (BiFC) assay, was generated by markerless BAC mutagenesis from BAC clone TB40-BAC4 by inserting the sequences corresponding to a (GGGGS)2-linker sequence, the c-myc-tag and the N-terminal fragment of the yellow fluorescent protein (YFP) variant Citrine, comprising amino acids 1–173 (YN), before the stop codon of the UL71 open reading frame. […]

Row | Molecule | co-precipitation by VPS4A-FLAG (VPS4A-FLAG [1]) | recruitment of VPS4A-FLAG to juxtanuclear compartments (VPS4A-FLAG [2]) | association of VPS4A variant with pUL71 at juxtanuclear compartments (pUL71) | Citrine fluorescence (BiFC) [3]
1 | B1 | do not | not recruited to juxtanuclear membranes | – | –
2 | B2 | – | – | prevents association | –
3 | B3 | – | – | efficiently recruited by pUL71 | –
4 | B4 | – | – | – | Citrine fluorescence was detected
5 | B5 | bind efficiently to co-transfected VPS4A-FLAG | it is recruited | – | –
